According to the supplement of paper PMC10126150:
± gives the standard deviation of the averaged measurements.

test system: ATP; experiment: switch fluorescence ratio, 500 uM ATP over buffer (Cy3 cluster intensity, sum of 5 cycles each) (fold (ratio)); higher = stronger signal-on switching upon ATP binding; sequences stand for … in TCGTCGGCAGCGTCAGATGTGTATAAGAGACAGTTTTTTTTTTTTTTTTTTTTTTTTT…TC; settings: aptamer strand: ATP DNA aptamer (quencher-CACCTGGGGGAGTATTGCGGAGGAAGG + anchor), 100 nM annealed; ATP concentration: 500 uM
Summary of the method: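 Five buffer/ATP imaging cycles were run on Cy3-labelled switching-strand clusters on a modified Illumina MiSeq flow-cell, with NaOH stripping and re-annealing between cycles. In each cycle, clusters annealed to 100 nM quencher-labelled ATP aptamer were imaged in selection buffer, then after 15 min with 500 uM ATP at 22 °C. Per cluster, the fluorescence ratio is summed target-cycle over summed buffer-cycle Cy3 intensity, averaged per switch-domain sequence. Only clusters within 100-1000 RFU were kept.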
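Further: ATP exposure 15 min at 22 °C before imaging.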

| Sequence | switch fluorescence ratio |
| --- | --- |
| CCTTAAGACA | 1.06 ± 0.015 |
| CCTTAGGTTT | 1.002 ± 0.0011 |
| CCTTATAATT | 1.02 ± 0.035 |
| CCTTATGGGG | 1 ± 0.023 |
| CCTTATTTCT | 1 ± 0.031 |
| CCTTGCAGAT | 1.99 ± 0.78 |
| CCTTGGGGAA | 0.98 ± 0.013 |
| CCTTGGGGTG | 1.06 ± 0.14 |
| CCTTGTGGGA | 0.983 ± 0.011 |
| CCTTGTTTTT | 1.01 ± 0.01 |
| CCTTTAGATT | 1.01 ± 0.013 |
| CCTTTCACTC | 1.124 ± 0.0035 |
| CCTTTCAGGA | 0.9993 ± 0.0015 |
| CCTTTCGGGT | 0.982 ± 0.039 |
| CCTTTCGTGT | 1.19 ± 0.22 |
| CCTTTGCAGG | 2.45 ± 0.27 |
| CCTTTGCCCG | 1.07 ± 0.17 |
| CCTTTTGTGG | 1.015 ± 0.0068 |
| CGAAAAGGTG | 1.05 ± 0.054 |
| CGAAAATAAT | 0.9817 ± 0.0022 |
| CGAAAATATC | 0.989 ± 0.023 |
| CGAAAATGTA | 0.9772 ± 0.0089 |
| CGAAAGAAAT | 1.02 ± 0.031 |
| CGAAAGCAGG | 1.1681 ± 0.00099 |
| CGAAAGGTTG | 0.939 ± 0.017 |

| Sequence | switch fluorescence ratio |
| --- | --- |
| CGAAATGGCA | 1.03 ± 0.045 |
| CGAAATTACG | 1.04 ± 0.021 |
| CGAAGAAAGG | 1.16 ± 0.013 |
| CGAAGAGGCG | 0.997 ± 0.052 |
| CGAAGAGGTC | 1.02 ± 0.032 |
| CGAAGATCGA | 0.982 ± 0.042 |
| CGAAGCAGCG | 1.4 ± 0.044 |
| CGAAGCTTAT | 2.74 ± 0.53 |
| CGAAGGCTGT | 1.003 ± 0.0095 |
| CGAAGGGGTG | 0.9749 ± 0.0032 |
| CGAAGTTGAC | 1.63 ± 0.13 |
| CGAAGTTTCG | 1.02 ± 0.017 |
| CGAAGTTTTT | 0.998 ± 0.004 |
| CGAATAAGAA | 0.9383 ± 0.0074 |
| CGAATATAGC | 1.02 ± 0.015 |
| CGAATCCAGG | 2.46 ± 0.062 |
| CGAATCCATT | 0.9869 ± 0.0033 |
| CGAATCCCCA | 1.07 ± 0.032 |
| CGAATCGGTA | 0.969 ± 0.00014 |
| CGAATCGGTG | 1.01 ± 0.019 |
| CGAATGGGAC | 1.042 ± 0.007 |
| CGAATGGGTT | 0.965 ± 0.011 |
| CGAATGTTGG | 0.99 ± 0.041 |
| CGAATTAGGT | 1.03 ± 0.019 |
| CGACAAGCTT | 1.03 ± 0.016 |

| Sequence | switch fluorescence ratio |
| --- | --- |
| CGACAATCAT | 1.039 ± 0.0036 |
| CGACAGCGGC | 2.11 ± 0.094 |
| CGACATATCC | 1.12 ± 0.027 |
| CGACATGGTC | 1.02 ± 0.015 |
| CGACCACGTA | 1.12 ± 0.029 |
| CGACGAGTAA | 1.32 ± 0.36 |
| CGACGATCGT | 0.971 ± 0.028 |
| CGACGATGAC | 5.46 ± 0.077 |
| CGACGATTTG | 1.01 ± 0.026 |
| CGACGCGGTA | 3.14 ± 0.059 |
| CGACGCTTGT | 3.15 ± 0.38 |
| CGACGGGGCT | 1.13 ± 0.049 |
| CGACGGGTTT | 1.08 ± 0.035 |
| CGACGTTCGC | 1.48 ± 0.037 |
| CGACTACTTT | 1.05 ± 0.031 |
| CGACTAGGAA | 1.04 ± 0.023 |
| CGACTAGGGG | 1.01 ± 0.024 |
| CGACTGGGGG | 0.957 ± 0.026 |
| CGACTTGGAA | 1.02 ± 0.036 |
| CGAGACTAGT | 1.01 ± 0.063 |
| CGAGACTTAT | 0.996 ± 0.013 |
| CGAGATTTGT | 1.011 ± 0.0097 |
| CGAGCAGTGG | 1.1 ± 0.034 |
| CGAGCCAGAT | 1.04 ± 0.028 |
| CGAGCGGAAG | 1.03 ± 0.032 |

| Sequence | switch fluorescence ratio |
| --- | --- |
| CGAGCTTGAG | 0.99 ± 0.002 |
| CGAGGAAGGG | 1.01 ± 0.021 |
| CGAGGACGGG | 1 ± 0.029 |
| CGAGGATAAC | 1.03 ± 0.043 |
| CGAGGATGT | 1.01 ± 0.011 |
| CGAGGCACAG | 1.53 ± 0.052 |
| CGAGGCTAGG | 1.07 ± 0.021 |
| CGAGGGAACG | 1 ± 0.04 |
| CGAGGGACTG | 0.984 ± 0.0099 |
| CGAGGGATGG | 0.977 ± 0.05 |
| CGAGGGGAGG | 1.05 ± 0.028 |
| CGAGGGGGA | 1.0066 ± 0.00091 |
| CGAGGGGGTG | 1.02 ± 0.055 |
| CGAGGGTTGG | 1.02 ± 0.018 |
| CGAGTAAAAT | 1.08 ± 0.1 |
| CGAGTAGGGA | 0.995 ± 0.021 |
| CGAGTAGTAG | 1.03 ± 0.059 |
| CGAGTCCATC | 0.955 ± 0.012 |
| CGAGTCCCAC | 1 ± 0.12 |
| CGAGTCCGTT | 0.99 ± 0.018 |
| CGAGTGGATG | 0.994 ± 0.018 |
| CGAGTTGGTA | 1.01 ± 0.025 |
| CGAGTTTGAC | 0.977 ± 0.019 |
| CGATACGTGG | 1.02 ± 0.042 |
| CGATAGGGGC | 1.08 ± 0.14 |

| Sequence | switch fluorescence ratio |
| --- | --- |
| CGATAGTTGT | 1.27 ± 0.38 |
| CGATATATGA | 1.02 ± 0.019 |
| CGATATGTAG | 1.016 ± 0.0045 |
| CGATATTGAT | 1.03 ± 0.035 |
| CGATCCCGGG | 1.07 ± 0.11 |
| CGATCCGTCC | 1.09 ± 0.032 |
| CGATCGATAT | 0.998 ± 0.032 |
| CGATCGGATT | 1.01 ± 0.017 |
| CGATCGGTAC | 3.3 ± 0.38 |
| CGATCGTAAT | 2.1 ± 0.036 |
| CGATCTTGTT | 0.982 ± 0.018 |
| CGATGAAAGG | 0.966 ± 0.023 |
| CGATGCTAGT | 1.07 ± 0.037 |
| CGATGGAGGA | 0.98967 ± 0.00091 |
| CGATGGCCCT | 1.03 ± 0.011 |
| CGATGGGGGG | 0.982 ± 0.06 |
| CGATGGTAAG | 0.972 ± 0.011 |
| CGATGGTCTG | 0.9872 ± 0.0018 |
| CGATGTCGAA | 1.01 ± 0.011 |
| CGATGTCGCG | 0.989 ± 0.028 |
| CGATGTTATG | 1.02 ± 0.022 |
| CGATTAAAAT | 0.986 ± 0.021 |
| CGATTAAATG | 0.993 ± 0.013 |
| CGATTAAGGT | 1.02 ± 0.043 |
| CGATTATGGT | 1.003 ± 0.0094 |

| Sequence | switch fluorescence ratio |
| --- | --- |
| CGATTATTTG | 0.9786 ± 0.0053 |
| CGATTCAAGG | 1.03 ± 0.017 |
| CGATTCGGTG | 0.9698 ± 0.0031 |
| CGATTCTGCT | 0.996 ± 0.036 |
| CGATTGATGT | 1.02 ± 0.016 |
| CGATTGGTAC | 1.25 ± 0.023 |
| CGATTTGCTT | 0.969 ± 0.058 |
| CGATTTTGTA | 1.01 ± 0.051 |
| CGATTTTGTT | 0.989 ± 0.034 |
| CGCACTTGGG | 0.99283 ± 0.0007 |
| CGCAGCTATT | 3.56 ± 2.1 |
| CGCAGGCTTG | 1.04 ± 0.043 |
| CGCAGGGGGA | 1.033 ± 0.008 |
| CGCAGGGGGC | 1.14 ± 0.059 |
| CGCATAGGCT | 1.11 ± 0.18 |
| CGCATGATGT | 1.03 ± 0.018 |
| CGCATGGGGT | 1.0574 ± 1.7e-05 |
| CGCATTCGTG | 1.08 ± 0.029 |
| CGCATTCTAA | 1.31 ± 0.019 |
| CGCATTCTGC | 1.17 ± 0.091 |
| CGCCCGTAGG | 1.05 ± 0.011 |
| CGCCTCATGA | 1.04 ± 0.029 |
| CGCCTTGGGG | 1 ± 0.05 |
| CGCCTTGTTC | 1.01 ± 0.012 |
| CGCGAAAGCC | 1.002 ± 0.01 |

| Sequence | switch fluorescence ratio |
| --- | --- |
| CGCGAAGAAC | 1.039 ± 0.0088 |
| CGCGAGGGGC | 1.07 ± 0.012 |
| CGCGATCGCG | 0.994 ± 0.055 |
| CGCGCCCCTT | 1.13 ± 0.015 |
| CGCGCGATTA | 1.02 ± 0.036 |
| CGCGGATTCT | 1.04 ± 0.021 |
| CGCGGCTATT | 1.07 ± 0.034 |
| CGCGGCTGGG | 1 ± 0.026 |
| CGCGGCTTGG | 1.01 ± 0.018 |
| CGCGGGGCAC | 1.062 ± 0.0025 |
| CGCGGGGTAC | 1.66 ± 0.26 |
| CGCGGTAGTC | 1.1 ± 0.046 |
| CGCGGTTTGT | 0.988 ± 0.017 |
| CGCGTCAGCC | 0.979 ± 0.073 |
| CGCGTCGCTG | 0.9811 ± 0.0012 |
| CGCGTGTCTG | 1.022 ± 0.0039 |
| CGCGTTGTGC | 1.11 ± 0.021 |
| CGCGTTTTTT | 1.07 ± 0.12 |
| CGCTAATCAG | 1.05 ± 0.043 |
| CGCTAATGCG | 1.04 ± 0.059 |
| CGCTACGGAG | 1.02 ± 0.029 |
| CGCTATAAGG | 1.03 ± 0.017 |
| CGCTATGGGG | 1.02 ± 0.059 |
| CGCTATGTGG | 1.02 ± 0.041 |
| CGCTATTGTT | 1.028 ± 0.0065 |

| Sequence | switch fluorescence ratio |
| --- | --- |
| CGCTATTTTA | 1.04 ± 0.039 |
| CGCTCAGGAC | 1.29 ± 0.1 |
| CGCTCTTGTA | 0.991 ± 0.012 |
| CGCTGATTTG | 1.002 ± 0.0074 |
| CGCTGCGGTT | 1.01 ± 0.05 |
| CGCTGGACGG | 1.023 ± 0.0098 |
| CGCTGGATAG | 1.08 ± 0.051 |
| CGCTGGGGAT | 1.04 ± 0.027 |
| CGCTGGGTCA | 1.04 ± 0.13 |
| CGCTGGGTTT | 0.976 ± 0.035 |
| CGCTGTGCGG | 0.99 ± 0.052 |
| CGCTGTTGGT | 0.9997 ± 0.0098 |
| CGCTTAAGAG | 1.02 ± 0.014 |
| CGCTTAATTG | 1.01 ± 0.051 |
| CGCTTATGGA | 1.003 ± 0.0032 |
| CGCTTGACTT | 0.985 ± 0.028 |
| CGCTTGGTTT | 0.9911 ± 0.0063 |
| CGCTTTAATT | 0.989 ± 0.032 |
| CGCTTTTTTG | 1.01 ± 0.032 |
| CGGAAAGAAA | 1.06 ± 0.058 |
| CGGAAAGGGT | 1.01 ± 0.027 |
| CGGAAATAT | 1.023 ± 0.0046 |
| CGGAAATTGG | 0.982 ± 0.012 |
| CGGAAATTTG | 1.02 ± 0.032 |
| CGGAACAGTT | 1.02 ± 0.024 |
